Article doi:10.1101/2022.06.15.496315
Read-outs that look alike come from different tables or passages of the source.

Legend:
[1] = biological target: ZIKV envelope protein (E) in infected Vero cells (Zika virus (MR766 strain)); experiment: proximity ligation
[2] = biological target: ZIKV envelope protein (E) in infected Vero cells (Zika virus (MR766 strain)); experiment: proximity ligation; remark: listed apart in the source

## naturally occurring dynein (cytoplasmic dynein-1) of Vero cells, detected by its heavy chain (natural protein)
[1]
  PLA dots per cell (dots per cell): > 6
[2]
  PLA dots per cell (dots per cell): < 1
